In patent publication US20240327502A1 (Merck Sharp & Dohme, published 2024):

Legend:
[1] = molecular target: T1, Processed stabilized hMPV PreF trimer (115BV) (human metapneumovirus, strain B2); assay: BLI, mAb on anti-human Fc sensor
T1 construct: also called Processed hMPV PreF trimer; processed PreF

hMPV PostF trimer = molecular target: T2, hMPV PostF trimer (human metapneumovirus, strain B2); assay: BLI, mAb on anti-human Fc sensor
T2 construct: also called MPV PostF (dPFv1)

[2] = molecular target: T3, Unprocessed hMPV PreF trimer (human metapneumovirus, strain B2); assay: BLI, mAb on anti-human Fc sensor
T3 construct: also called Unprocessed hMPV WT PreF trimer; unprocessed hMPV PreF trimeric antigen

[3] = molecular target: T1, Processed stabilized hMPV PreF trimer …; assay: BLI, ratio to unprocessed PreF trimer

| Binder | Octet binding response [1] | Octet binding response (hMPV PostF trimer) | Octet binding response [2] | processed/unprocessed PreF trimer binding ratio [3] |
| --- | --- | --- | --- | --- |
| M4B03 (antibody, V domains shown, IgG) VH: QVQLVQSGAEVKKPGASVKVSCKASGYIFSNYRMHWVRQAPGQRLEWMGWITAGSGNTRYSEQFQGRVAFTSDTDATTVSMELSGLRFEDTAVYFCAREYNWNDAFPYWGQGTLVIVSS VL: SYVLTQPPSVSVAPGQTARIPCGGNNIGSKSVHWYQQKSGRAPVLVVYDDSDRPPGIPDRFSGSNSGNTATLTINKIEAGDEADYYCHVSDDNSDHVFFGGGTQLTVL | 0.108 nm | -0.061 nm | 0.324 nm | 0.33 |
| M2C08 (antibody, V domains shown, IgG) VH: QVQLVQSGAEVKKPGASVIVSCRASGFTFSLYTMHWVRQAPGQGLEWMGWISADNSNTKYSQKYQDRVTITMDTSATTLFMEISSLRSEDTAVYYCTRGPAYYFDSSGFAFDIWGQGTLVTVSS VL: EIVLTQSPGTLSLSPGERATLSCRASQSVSRTYLGWYQQRPGLAPRLLIYGTSSRATGIPDRFSGSGSGTDFTLTISRLEPEDFATYYCQHFGSSLTFGGGTKVEIK | 0.157 nm | -0.0185 nm | 0.415 nm | 0.38 |
| M1C7 (antibody, V domains shown, IgG; also called MIC7) VH: QVQLVESGGGLVQPGRSLRLSCAASGFTFSSYAMHWVRQAPGKGLEWVAIITYDGSGKYYADSLEGRITISRDDPKSMLYLHMRSLTAEDTAVYYCVKSGSFSSAFWLEDWGQGTLVTVSS VL: EIVLTQSPATLSLSPGERATLSCRASQSISNFVAWYQQKPGQAPRLLIYDASNGATGTPARFSGSGSGTDFTLTISSLEPEDFAVYYCQQRSTWTFGQGTKVEIKR | 0.359 nm | 0.0541 nm | 0.312 nm | 1.15 |
| M2B11 (antibody, V domains shown, IgG) VH: QVQLVQSGTEVKKPGASVKVSCKASGYTFTSHDINWLRQATGQGLEWLGWMNPNSATTGYAQKFQGRVTLTRDISISTAYMELSSLRSDDTAVYYCARNRHYYYADGPTRDAFDIWGQGTVVTVSS VL: SYELTQTPTVSVSPGQTASITCSGDELGHKYTSWYQQKPGQSPVLVVYQDTKRPSGIPERFSGSNSGNTATLTISGTQVMDEADYYCQAWDSGTVLLGGGTKLTVL | 0.498 nm | -0.0289 nm | 0.38 nm | 1.31 |
| M2C11 (antibody, V domains shown, IgG) VH: QVQLVQSGAEVRKPGASVKVSCKASGYTFTSHDINWVRQAPGQGLEWMGWMNPNSDTTGYAQKFQGRVTMARDISMSTAYMELSSLTSEDTAVYYCARGRHNYYTNGPTRDGFDIWGQGTMVTVSS VL: SYELTQPPSVSVSPGQTATITCSGDDLGNQYANWFQQRPGQSPVLVIYQDNKRPSGIPERFSGSSSGNTATLTISGTQPLDEADYYCQAWDSRTYVFGTGTKVTVL | 0.362 nm | -0.03 nm | 0.349 nm | 1.04 |
| M2D08 (antibody, V domains shown, IgG) VH: QVQLVESGGGVVQPGRSLRLSCAASGFVFRFSGMHWIRQAPGKGLQWVAHISDDGSQKYYADSVTGRFAISRDNSRNTLFLEMTGLRGDDTAVYYCARGDYGVSYFLAHWGLGELVIVSS VL: EIVLTQSPATLSLSPGERATLSCRASQNIYNYLAWYQQKPGQAPRLVIYDASNRATGIPARFSGSGSETDFTLTISSLEPEDFAVYYCQQRSDWTFGQGTKLEIK | 0.182 nm | -0.0414 nm | 0.416 nm | 0.44 |
| M3C06 (antibody, V domains shown, IgG) VH: QVQLVQSGAEVKKPGSSVKVSCKAYGGTLSNYAISWVRQAPGQGLHWMGRIIPVMNVANYADNFQGRVTITADKSTSTAYMELSSLRSEDAAIYYCATARGLGSLEGGDAFDVWGQGTMLTVSS VL: DIVMTQSPDSVAVSLGERATISCKSSLSLLYSSNNKNYLVWYQQKPGQPPKLLFYWASTRESGVPDRFSASGSGTDFTLTISSLQAEDVAVYYCQQYYSTPITFGQGTRLEIR | 0.195 nm | -0.0338 nm | 0.208 nm | 0.93 |
| M4A10 (antibody, V domains shown, IgG) VH: QVQLVQSGAEVKKPGASVKVSCKASGYTFNGHYLHWVRQAPGQGLEWMGWINPNSGGTDYAQRFQGRVTMTRGTSISTAYMELSRLTSDDTAVYFCARDNFGFWSASSGRHNWLDSWGQGTLVIVSS VL: NFMLTQPHSVSESPGKTVTISCTRSTGNIASNYVQWYQQRPGSSPTTVIYEDNQRPSAVPDRFSGSIDSSSNSASLTVSGLRTEDEADYYCQSYDSGHHVVFGGGTKLTVL | 0.23 nm | -0.0388 nm | 0.325 nm | 0.71 |
| M2C06 (antibody, V domains shown, IgG) VH: QVQLVQSGAEVKKPGSSVKVSCRPSGGTFSNDILSWVRQAPGQRLEWMGRIIPLVNMTNIAQKFQGRLTLVADKSTAIVHLELGSLRAEDTAIYYCVRDLPSAGFPAPFDIWGQGTRVTVSA VL: EIVLTQSPGSLSLSPGARATVSCRASQSLNSASLVWYQQRVGQAPRLLMFGASNRATGIPDRFSGSGSGTDFTLTISRLEPEDFAVYYCQQYAFSPPTFGQGTKVEIK | 0.472 nm | 0.436 nm | 0.408 nm | 1.16 |
| M2B05 (antibody, V domains shown, IgG) VH: QVQLQQWGAGLLRPSETLSLTCTVYGGSFGGYHWSWIRQSPGKGLEWIGEIDHGGNTNFNPSLKSRVTISVDRSKKQFSLKLTSVTAADTAVYYCARGFGVVINNWFDPWGQGTLVTVSS VL: DIQMTQSPSSLSASVGDRVTITCRASQTINSYLNWYQQKPGKAPTLLIYTVSSLQSGVPSRFSGSGSGTVFSLTISSLQPEDFATYYCQQSYNSPYTFGQGTKLEIK | 0.542 nm | 0.486 nm | 0.447 nm |  |
| M2C05 (antibody, V domains shown, IgG) VH: EVQLLESGGGLVQPGGSLRLSCAGSGFTFSNYAMSWVRQAPGKGLEWVSDINDRGETTHYADSVKGRFTISRDNSKKKLFLQMNDLRAEDTAIYYCTRAYVVLSVYAPKGFDYWGQGTLVSVSS VL: DIQMTQSPSILSASEGDRVTITCRASQSVSNWLAWYQQKSGRAPKLLIYKASSLETGVPSRFSGSGSGTEFTLTINNLQPDDFATYYCQHYNGYPYTFGQGTKLEIK | 0.464 nm |  | 0.399 nm | 1.16 |
| M3A05 (antibody, V domains shown, IgG) VH: QITLKESGPTLVKPTQTLTLTCTFSGFSLNTGGVSVGWIRQPPGKALEWLALIYWDGDKRYSPSLKSRLTITKDTSKNQVVFTMTNMDPVDTATYYCAHRENSAYIDFWGQGTLVTVSS VL: QSVLTQPPSVSAAPGQKVTISCSGSSSNIGNNYVSWYQQLPGAAPKLLIYDNNKRPSGIPDRFSGSKSGTSASLGITGLQTGDEADYYCGTWDSSLSVGFYVFGTGTKVTVL | 0.0071 nm | 0.229 nm |  | 0.09 |
| M3A11 (antibody, V domains shown, IgG) VH: EVQLVESGGGLVQPGGSLRLSCAASGFTFSDYSMNWVRQAPGQGLEWISYISSTGSTIYYADSVRGRFTISRDNAKNSLYLQMNTLRAEDTAVYYCARGKTTVTIWFDPWGQGTLVTVSS VL: SYVLTQPPSVSVAPGQTARITCGGNNIGSKSVHWYQQKPGQAPVLVVYDDSDRPSGIPERFSGSNSGNTATLTISRVEAGDEADYYCQVWHSSSDWVFGGGTRLTVL |  | 0.414 nm |  |  |
| M3C01 (antibody, V domains shown, IgG) VH: QLQLQESGPGLVKPSETLSLTCTVSGGSISSSSYFWGWIRQPPGKGLEWIGSVFYSGSTYYNPSLKSRVTISVDTPKNQFSLRLSSVTAADTAVYYCARHSWDRWVYWGQGTLVTVSS VL: DIQMTQSPSSVSASVGDRVTITCRASQDISSWLAWYQQKPGKAPKLLIYAASSLQSGVPSRFSGSGSGTDFTLTISSLQPEDFATYYCQQANSFPLTFGGGTKVEIK |  | 0.327 nm | 0.0597 nm |  |
| M3D08 (antibody, V domains shown, IgG) VH: QVQLQESGPGLVKPSETLSLTCSVSGVSISSHYWSWIRQPAGKGLEWIGRLYTSGTTTYNPSLNSRVTMSVDTTNNRLSLRLTSVTAADTAVYYCARDVRLTVFGALHNWFDPWGQGILVTVSS VL: DIQMTQSPSSLSASVGDRVTITCRASQSIGTHLNWYQQQRGRAPKLLVYAASGLQSGVPSRFSGSGSGTYFTLTISSLQPEDFATYYCQQSYSTPSITFGQGSRLDIK | 0.0113 nm | 0.307 nm |  | 0.17 |
| M3E05 (antibody, V domains shown, IgG) VH: EVQLVESGGSVIQPGGSLRLSCAASGFSVRTNYMNWVRQAPGKGLEWVSVIYSDGRTYYSDSVKGRFTISRDNSMNNVFLQMNSLRAEDTAVYYCARDPTFYSSSWWYLDHWGQGTQVTVSS VL: SYELTQALSVSVARGQTAKITCGGNNIGVRNVHWYQQKPGQAPVLVIYRDNIRPSGIPERFSGSNSGNMAALTISSAQEGDEADYYCQVWDSNTAHVIFGGGTKLTVL |  | 0.509 nm | 0.126 nm |  |
| M3E06 (antibody, V domains shown, IgG) VH: EVQLVESGGGLVQPGGSLRLSCAASGFTFSSYWMSWVRQAPGKGLEWVANIKQDGSEKYYVDSVKGRFTISRDNAKNSLYLQMNSLRAEDTAVYYCARYYYDSSGYYYYYYYYMDVWGKGTTVTVSS VL: not shown | 0.0101 nm | 0.329 nm |  | 0.18 |
| M2C01 (antibody, V domains shown, IgG) VH: EVQLVESGGDLAKPGGSLRLSCEASGFTFSNAWMSWVRQAPGKGLEWVGQIKPHTDGATTDYAAPVKGRFTISRDDSKSTLYLRMNILRIEDTAMYYCTTGPRLSLMWGQGTRVTVSS VL: not shown |  | -0.0726 nm | 0.107 nm |  |
